From paper doi:10.1101/2021.02.26.433003 (bioRxiv, 2021)

Biological target: the molecule itself
Assay: dynamic light scattering + fluorescence microscopy

B1: Dhh1^48-425 (domain or fragment, yeast, UniProt P39517 48-425, looked up)
chain: FEDFYLKRELLMGIFEAGFEKPSPIQEEAIPVAITGRDILARAKNGTGKTAAFVIPTLEKVKPKLNKIQALIMVPTRELALQTSQVVRTLGKHCGISCMVTTGGTNLRDDILRLNETVHILVGTPGRVLDLASRKVADLSDCSLFIMDEADKMLSRDFKTIIEQILSFLPPTHQSLLFSATFPLTVKEFMVKHLHKPYEINLMEELTLKGITQYYAFVEERQKLHCLNTLFSKLQINQAIIFCNSTNRVELLAKKITDLGYSCYYSHARMKQQERNKVFHEFRQGKVRTLVCSDLLTRGIDIQAVNVVINFDFPKTAETYLHRIGRSGRFGHLGLAINLINWNDRFNLYKIEQELGTEIAAIPATIDKSLYVAENDET
Q: Does B1 bind?
A: binds
